According to US11872262B2, “Means and methods for treating bacterial infections” (VIB VZW, priority 2017, dated 2024):
Residues, ends and D or L forms follow the SMILES beside them. *: point of attachment. FITC = O=C1OC2(c3ccc(O)cc3Oc3cc(O)ccc32)c2ccc(NC(=S)*)cc21

Assays:
[1] = Biodistribution study in healthy animals; type: in vivo, mice; details: single dose of 10 mg/kg, IP or urinary tract
Experimental: FIG. 7: Fluorescence imaging of organs ex vivo 3 h after a single injection (10 mg/kg) of Colpeptin1.
Given these positive results, we then established the tolerance of the Swiss mice to the peptide by performing a dose escalation experiment. […] The parameters observed included body weight, food and water consumption, home cage activity and locomotion. […] Based on these observations, we tested the antibacterial efficacy of the colpeptin1 in a mouse bladder infection model. In this model, an inoculum of 50 μL of a 10^8 CFU/mL suspension of E. coli O157:H7 was delivered via the urethra to the bladder of healthy Swiss mice. 1 h post-infection, we administered a single injection of colpeptin1 at 10 mg/kg, either via the urethra (n=15) or intraperitoneally (n=15). 24 h after treatment, the animals were sacrificed and the bacterial titer in kidney, colon, bladder and ureter was determined by plating the macerated tissue (FIG. 2F-l).

E. coli O157 = type: cell-based, Escherichia coli; details: HPLC-grade purified peptides, E. coli O157
Experimental: The MICs of active peptides were determined via the Broth microdilution assay according to the EUCAST guideline, which were performed in 96-well polystyrene flat-bottom microtiter plates (BD Biosciences). Briefly, a single colony was inoculated into 5 mL LB medium and grown to the end-exponential growth phase in a shaking incubator at 37° C. Cultures were subsequently diluted to an OD600 of 0.002 ([…]) in fresh LB medium. 100 μL of LB medium with different concentration of peptides ranging from 100 μg/mL to 1 μg/mL were serially diluted to the sterile 96-well plate (at least 3 wells in each plate). Afterward, 100 μL of the diluted bacteria were pipetted into 96-well plates containing different concentration of peptides. In each plate, the grown bacteria with maximum concentration of carrier and medium were considered as positive and negative controls, respectively. Thereafter, 96-well plates was statically incubated overnight at 37° C. to allow bacterial growth. A multipurpose UV/VIS plate reader at OD590 nm, 1 s shaking measured the absorbance of the growth bacteria using a Perkin Elmer spectrophotometer (1420 Multilabel Counter Victor 3).

Structure (SMILES) | clearance of the peptide [1] | duration of distribution of fluorescent material after injection [1] | MIC (E. coli O157) [µg/mL]
CC(C)C[C@H](NC(=O)CNC(=O)[C@H](CCCNC(=N)N)NC(=O)[C@@H]1CCCN1C(=O)[C@H](CCCNC(=N)N)NC(=O)[C@H](CCCNC(=N)N)NC(=O)[C@@H](NC(=O)[C@H](CC(C)C)NC(=O)[C@H](C)NC(=O)[C@H](CC(C)C)NC(=O)CNC(=O)[C@H](CC(C)C)NC(=O)CNC(=O)[C@H](CCCNC(=N)N)NC(=S)Nc1ccc2c(c1)C(=O)OC21c2ccc(O)cc2Oc2cc(O)ccc21)C(C)C)C(=O)NCC(=O)N[C@@H](CC(C)C)C(=O)N[C@@H](C)C(=O)N[C@@H](CC(C)C)C(=O)N[C@H](C(=O)N[C@@H](CCCNC(=N)N)C(=O)N[C@@H](CCCNC(=N)N)C(=O)O)C(C)C [FITC-colpeptin1] ({FITC}-RGLGLALVRRPRGLGLALVRR-OH; N-terminus and C-terminus assumed) | total clearance of the peptide after 24 h | at least 3 h | –
CC(C)C[C@H](NC(=O)CNC(=O)[C@H](CCCNC(=N)N)NC(=O)[C@@H]1CCCN1C(=O)[C@H](CCCNC(=N)N)NC(=O)[C@H](CCCNC(=N)N)NC(=O)[C@@H]1CCCN1C(=O)[C@H](CC(C)C)NC(=O)[C@H](C)NC(=O)[C@@H]1CCCN1C(=O)CNC(=O)[C@H](CC(C)C)NC(=O)CNC(=O)[C@@H](N)CCCNC(=N)N)C(=O)NCC(=O)N1CCC[C@H]1C(=O)N[C@@H](C)C(=O)N[C@@H](CC(C)C)C(=O)N1CCC[C@H]1C(=O)N[C@@H](CCCNC(=N)N)C(=O)N[C@@H](CCCNC(=N)N)C(=O)O [P2 pro2] (H-RGLGPALPRRPRGLGPALPRR-OH) | – | – | >100
